Two molecules from US9766249B2, “Compositions and methods for prediction of drug sensitivity, resistance, and disease progression” (BioMarker Strategies, LLC, priority 2010, dated 2017) can be followed below.

Holding throughout (format): cell-based
The subject of assay [1] is RPMI-7951. The assay is described as follows: PDGFβ stimulation and MEK inhibition of PDGFβ stimulation (FIGS. 23 and 24). To be noted: PDGFβ stimulation.
For assay [2], the system named is human pancreatic neuroendocrine tumors (PanNETs). Put plainly: Pancreatic tumor functional signaling profile upon TPA stimulation (FIG. 18). The note with it: tumor sample 10189 (metastatic PancNET). An excerpt:
All samples except 10195 are examples of human pancreatic neuroendocrine tumors (PanNETs). 10195 is a sample of a human pancreatic adenocarcinoma. The data reveal differences in functional profiles based on TPA stimulation using three different phosphoprotein biomarkers (p-ERK1/2, p-GSKα/β, and p-STAT3).

For assay [3], the system named is RPMI-7951. The assay is described as follows: Melanoma pErk induction following stimulation by TPA (FIG. 17).

B1: PDGFβ: platelet-derived growth factor stimulus applied to melanoma cell lines (protein, UniProt P01127 82-190, looked up)
Platelet-derived growth …: SLGSLTIAEPAMIAECKTRTEVFEISRRLIDRTNANFLVWPPCVEVQRCSGCCNNRNVQCRPTQVQLRPVQVRKIEIVRKKPIFKKATVTLEDHLACKCETVAAARPVT
Consider B1, for which the pPDGF entry in assay [1] is listed as “activated”.

B2: tissue plasminogen activator (protein, UniProt P00750 36-562, looked up)
Tissue-type plasminogen …: SYQVICRDEKTQMIYQQHQSWLRPVLRSNRVEYCWCNSGRAQCHSVPVKSCSEPRCFNGGTCQQALYFSDFVCQCPEGFAGKCCEIDTRATCYEDQGISYRGTWSTAESGAECTNWNSSALAQKPYSGRRPDAIRLGLGNHNYCRNPDRDSKPWCYVFKAGKYSSEFCSTPACSEGNSDCYFGNGSAYRGTHSLTESGASCLPWNSMILIGKVYTAQNPSAQALGLGKHNYCRNPDGDAKPWCHVLKNRRLTWEYCDVPSCSTCGLRQYSQPQFRIKGGLFADIASHPWQAAIFAKHRRSPGERFLCGGILISSCWILSAAHCFQERFPPHHLTVILGRTYRVVPGEEEQKFEVEKYIVHKEFDDDTYDNDIALLQLKSDSSRCAQESSVVRTVCLPPADLQLPDWTECELSGYGKHEALSPFYSERLKEAHVRLYPSSRCTSQHLLNRTVTDNMLCAGDTRSGGPQANLHDACQGDSGGPLVCLNDGRMTLVGIISWGLGCGQKDVPGVYTKVTNYLDWIRDNMRP
notes: modulator used for ex vivo stimulation
B2 had a pERK induction in assay [2] of 10 ×. For the same molecule, the pErk entry in assay [3] was “induction”.
